The chains are these.
B1: Protein phosphatase 2C 77 (Arabidopsis thaliana (Mouse-ear cress)), O04719 (parent)
chain: MDEVSPAVAVPFRPFTDPHAGLRGYCNGESRVTLPESSCSGDGAMKDSSFEINTRQDSLTSSSSAMAGVDISAGDEINGSDEFDPRSMNQSEKKVLSRTESRSLFEFKCVPLYGVTSICGRRPEMEDSVSTIPRFLQVSSSSLLDGRVTNGFNPHLSAHFFGVYDGHGGSQVANYCRERMHLALTEEIVKEKPEFCDGDTWQEKWKKALFNSFMRVDSEIETVAHAPETVGSTSVVAVVFPTHIFVANCGDSRAVLCRGKTPLALSVDHKPDRDDEAARIEAAGGKVIRWNGARVFGVLAMSRSIGDRYLKPSVIPDPEVTSVRRVKEDDCLILASDGLWDVMTNEEVCDLARKRILLWHKKNAMAGEALLPAEKRGEGKDPAAMSAAEYLSKMALQKGSKDNISVVVVDLKGIRKFKSKSLN
partner: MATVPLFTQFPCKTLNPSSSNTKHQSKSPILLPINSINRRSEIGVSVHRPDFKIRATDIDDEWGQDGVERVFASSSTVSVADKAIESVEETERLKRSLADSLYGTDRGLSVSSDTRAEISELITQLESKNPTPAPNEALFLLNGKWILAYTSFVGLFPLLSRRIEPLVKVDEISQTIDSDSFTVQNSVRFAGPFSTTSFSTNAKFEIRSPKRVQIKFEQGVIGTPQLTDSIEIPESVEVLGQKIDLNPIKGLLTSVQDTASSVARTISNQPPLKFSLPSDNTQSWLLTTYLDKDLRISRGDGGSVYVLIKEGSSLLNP

Variants of B1 are the subject of the first assay. The note with it: with pap1_arath PAP1, O81439.
G168D: the “effect of a mutation on the interaction” value is listed as “disrupting interaction strength”.

In a further assay the parent is B1. The conditions noted are these: with pap1_arath PAP1, O81439. This is another data set of the same source.
As to G168D, the “effect of a mutation on the interaction” value was “disrupting interaction”.

Source of the values: IntAct's records for PubMed 16571665.
